Reference: patent EP4653533A1 (JCR Pharmaceuticals Co., Ltd., dated 2025)
Substitutions are numbered along the chain they refer to. Like-named read-outs stand apart in the source and are kept apart here. Each block holds one binder with its values, some of them ahead of it.

Legend:
[1] = biological target: T1, recombinant monkey TfR (extracellular region of cynomolgus monkey transferrin receptor, N-terminal histidine … (cynomolgus monkey (Macaca fascicularis), UniProt Q5RDH6 89-760 (Pongo abelii entry))); assay: BLI (OctetRED96), His-tagged TfR ECD on Ni-NTA biosensor, peptide in solution
T1 construct: also called r monkey TfR; monkey TfR-ECD (Histag); not shown: histidine tag at the N-terminus
T1 chain: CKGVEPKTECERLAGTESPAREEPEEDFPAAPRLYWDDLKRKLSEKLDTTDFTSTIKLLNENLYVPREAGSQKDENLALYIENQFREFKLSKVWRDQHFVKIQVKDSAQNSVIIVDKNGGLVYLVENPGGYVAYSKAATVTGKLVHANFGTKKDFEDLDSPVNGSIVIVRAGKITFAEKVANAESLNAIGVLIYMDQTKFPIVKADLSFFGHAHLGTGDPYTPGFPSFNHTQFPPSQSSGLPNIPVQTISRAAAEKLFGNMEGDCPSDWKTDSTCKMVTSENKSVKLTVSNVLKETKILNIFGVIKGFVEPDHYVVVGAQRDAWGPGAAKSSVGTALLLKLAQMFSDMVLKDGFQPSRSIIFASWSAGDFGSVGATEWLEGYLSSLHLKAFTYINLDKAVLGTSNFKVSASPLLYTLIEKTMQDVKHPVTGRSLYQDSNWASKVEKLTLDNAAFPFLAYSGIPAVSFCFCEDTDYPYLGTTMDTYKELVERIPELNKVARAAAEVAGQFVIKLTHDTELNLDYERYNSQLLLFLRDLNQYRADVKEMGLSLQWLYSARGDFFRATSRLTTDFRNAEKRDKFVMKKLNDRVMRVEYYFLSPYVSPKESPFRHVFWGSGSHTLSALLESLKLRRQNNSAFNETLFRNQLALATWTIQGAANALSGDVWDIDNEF

[2] = biological target: T2, recombinant hTfR (extracellular region of human transferrin receptor, N-terminal histidine tag) (human, UniProt P02786 89-760); assay: as above
T2 construct: also called rhTfR; human TfR; not shown: histidine tag at the N-terminus

[3] = biological target: T1, recombinant monkey TfR (extracellular …); assay: as above
[4] = biological target: T3, recombinant mouse TfR (extracellular region of mouse transferrin receptor, N-terminal histidine tag) (mouse, UniProt Q62351 89-763); assay: as above
T3 construct: also called r mouse TfR; mouse TfR-ECD (Histag); not shown: histidine tag at the N-terminus
T3 sequence (Q62351 89-763): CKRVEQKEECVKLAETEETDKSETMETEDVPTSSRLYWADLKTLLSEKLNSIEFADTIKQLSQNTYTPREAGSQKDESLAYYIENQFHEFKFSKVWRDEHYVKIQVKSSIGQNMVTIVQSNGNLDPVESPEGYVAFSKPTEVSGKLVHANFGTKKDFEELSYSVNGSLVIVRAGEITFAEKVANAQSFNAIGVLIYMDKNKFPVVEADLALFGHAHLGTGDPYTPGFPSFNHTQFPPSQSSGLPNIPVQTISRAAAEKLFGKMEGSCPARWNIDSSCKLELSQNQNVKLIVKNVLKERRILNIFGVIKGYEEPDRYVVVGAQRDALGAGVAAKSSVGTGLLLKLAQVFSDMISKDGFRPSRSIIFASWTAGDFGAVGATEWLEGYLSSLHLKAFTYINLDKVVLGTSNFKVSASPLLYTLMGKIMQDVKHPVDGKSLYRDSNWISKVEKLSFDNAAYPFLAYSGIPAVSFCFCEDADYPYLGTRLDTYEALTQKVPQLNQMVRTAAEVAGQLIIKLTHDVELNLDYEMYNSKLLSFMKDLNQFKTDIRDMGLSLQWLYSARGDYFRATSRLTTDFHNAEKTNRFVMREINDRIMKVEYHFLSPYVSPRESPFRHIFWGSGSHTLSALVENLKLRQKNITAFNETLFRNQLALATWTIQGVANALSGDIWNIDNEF

[5] = biological target: T1, recombinant monkey TfR (extracellular …); assay: calculated from BLI KD values; reference is the KD of the same peptide for hTfR
[6] = biological target: T3, recombinant mouse TfR (extracellular …); assay: as above

Kd [1]: 8.24 nM
Kd [2]: 0.932 nM
Kd [3]: 82.4 nM
Kd [4]: 5.31 nM
relative value of the dissociation constant (KD with hTfR set to 1) [5]: 8.84 fold
relative value of the dissociation constant (KD with hTfR set to 1) [6]: 5.7 fold
B1: hTfR affinity peptide 1 (VHH)
VHH: QVQLVESGGGLVQPGESLRLSCAASGSIFDIYVMRWYRQAPGKQREWVASIYDGGRSDYEAVVKGRFIISRDNAKNTGYLQMNSLKPEDTAVYFCNVLIYAGRNYWGQGTQVTVSS
notes: also called Clone 1; VHH(1)

Kd [2]: 4.4 nM
Kd [3]: 17.4 nM
Kd [4]: 5.75 nM
relative value of the dissociation constant (KD with hTfR set to 1) [5]: 3.95 fold
relative value of the dissociation constant (KD with hTfR set to 1) [6]: 1.31 fold
B2: hTfR affinity peptide 3 (VHH)
VHH: B1 VHH with L20I, E60V, A61N, I68T, Y79D, I99T, A101P
notes: It says only that the purified product was obtained in the same manner as peptide 1; also called Clone 2; VHH(3)
